Results taken from the supplement of paper PMC5998384.

Tests used:
HeLa Kyoto [1] = assay: thermal stability score vs G1/S (z-score of summed log2 fold changes over temperatures); higher = more thermally stable than in G1/S
HeLa Kyoto [2] = assay: solubility change mitosis vs G1/S (difference of NP-40 vs SDS log2 ratios) (log2 ratio difference); higher = more soluble in mitosis
HeLa Kyoto [3] = assay: solubility in G1/S (NP-40 vs SDS abundance) (log2 ratio); higher = more soluble; conditions: cell cycle stage: G1/S
[4] = cell cycle stage: early G1 (4.5 h after nocodazole release)
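Throughout, for solubility change mitosis vs G1/S (difference of NP-40 vs SDS log2 ratios): synchronized HeLa Kyoto cells (double thymidine block for G1/S, nocodazole release for mitosis), protein amounts in NP-40 versus SDS lysates quantified by mass spectrometry, three biological replicates.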
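Throughout, for solubility in G1/S (NP-40 vs SDS abundance): HeLa Kyoto cells arrested at G1/S by double thymidine block, proteins quantified by TMT10plex mass spectrometry in mild NP-40 versus SDS extracts, three biological replicates.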
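Throughout, for thermal stability score vs G1/S (z-score of summed log2 fold changes over temperatures): synchronized HeLa Kyoto cells, proteins quantified by TMT10plex mass spectrometry, three biological replicates, mitosis taken 0.5 h after nocodazole release, G1/S directly after double thymidine block.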

| Sequence | thermal stability score (HeLa Kyoto [1]; [4]) | thermal stability score (HeLa Kyoto [1]; cell cycle stage: mitosis) | solubility change mitosis (log2) (HeLa Kyoto [2]) | solubility in G1/S (log2) (HeLa Kyoto [3]) |
| --- | --- | --- | --- | --- |
| MTTLDHVIATHQSEWVSFNEEPPFPAHSQGGTEEHLPGLSSSPDQSESSSGENHVVDGGSQDHSHSEQDDSSEKMGLISEAASPPGSPEQPPPDLASAISNWVQFEDDTPWASTSPPHQETAETALPLTMPCWTCPSFDSLGRCPLTSESSWTTHSEDTSSPSFGCSYTDLQLINAEEQTSGQASGADSTDNSSSLQEDEEVEMEAISWQASSPAMNGHPAPPVTSARFPSWVTFDDNEVSCPLPPVTSPLKPNTPPSASVIPDVPYNSMGSFKKRDRPKSTLMNFSKVQKLDISSLNRTPSVTEASPWRATNPFLNETLQDVQPSPINPFSAFFEEQERRSQNSSISSTTGKSQRDSLIVIYQDAISFDDSSKTQSHSDAVEKLKQLQIDDPDHFGSATLPDDDPVAWIELDAHPPGSARSQPRDGWPMMLRIPEKKNIMSSRHWGPIFVKLTDTGYLQLYYEQGLEKPFREFKLEICHEISEPRLQNYDENGRIHSLRIDRVTYKEKKKYQPKPAVAHTAEREQVIKLGTTNYDDFLSFIHAVQDRLMDLPVLSMDLSTVGLNYLEEEITVDVRDEFSGIVSKGDNQILQHHVLTRIHILSFLSGLAECRLGLNDILVKGNEIVLRQDIMPTTTTKWIKLHECRFHGCVDEDVFHNSRVILFNPLDACRFELMRFRTVFAEKTLPFTLRTATSVNGAEVEVQSWLRMSTGFSANRDPLTQVPCENVMIRYPVPSEWVKNFRRESVLGEKSLKAKVNRGASFGSTSVSGSEPVMRVTLGTAKYEHAFNSIVWRINRLPDKNSASGHPHCFFCHLELGSDREVPSRFANHVNVEFSMPTTSASKASVRSISVEDKTDVRKWVNYSAHYSYQVALGSIWLMLPTPFVHPTTLPLLFLLAMLTMFAW [STON2] | 0.129 | -0.103 | 0.444 | -0.622 |
| MSQYTEKEPAAMDQESGKAVWPKPAGGYQTITGRRYGRRHAYVSFKPCMTRHERSLGRAGDDYEVLELDDVPKENSSGSSPLDQVDSSLPSEPIFEKSETEIPTCGSALNQTTESSQSFVAVHHSEEGRDTLGSSTNLHNHSEGEYIPGACSASSVQNGIALVHTDSYDPDGKHGEDNDHLQLSAEVVEGSRYQESLGNTVFELENREAEAYTGLSPPVPSFNCEVRDEFEELDSVPLVKSSAGDTEFVHQNSQEIQRSSQDEMVSTKQQNNTSQERQTEHSPEDAACGPGHICSEQNTNDREKNHGSSPEQVVRPKVRKLISSSQVDQETGFNRHEAKQRSVQRWREALEVEESGSDDLLIKCEEYDGEHDCMFLDPPYSRVITQRETENNQMTSESGATAGRQEVDNTFWNGCGDYYQLYDKDEDSSECSDGEWSASLPHRFSGTEKDQSSSDESWETLPGKDENEPELQSDSSGPEEENQELSLQEGEQTSLEEGEIPWLQYNEVNESSSDEGNEPANEFAQPAFMLDGNNNLEDDSSVSEDLDVDWSLFDGFADGLGVAEAISYVDPQFLTYMALEERLAQAMETALAHLESLAVDVEVANPPASKESIDGLPETLVLEDHTAIGQEQCCPICCSEYIKDDIATELPCHHFFHKPCVSIWLQKSGTCPVCRRHFPPAVIEASAAPSSEPDPDAPPSNDSIAEAP [PJA2] | -3.9 | -1.5 | 0.121 | -0.111 |
| MAGENFATPFHGHVGRGAFSDVYEPAEDTFLLLDALEAAAAELAGVEICLEVGSGSGVVSAFLASMIGPQALYMCTDINPEAAACTLETARCNKVHIQPVITDLVKGLLPRLTEKVDLLVFNPPYVVTPPQEVGSHGIEAAWAGGRNGREVMDRFFPLVPDLLSPRGLFYLVTIKENNPEEILKIMKTKGLQGTTALSRQAGQETLSVLKFTKS [N6AMT1] | 0.341 | 0.273 | 0.0523 | 0.483 |
| MPLVVFCGLPYSGKSRRAEELRVALAAEGRAVYVVDDAAVLGAEDPAVYGDSAREKALRGALRASVERRLSRHDVVILDSLNYIKGFRYELYCLARAARTPLCLVYCVRPGGPIAGPQVAGANENPGRNVSVSWRPRAEEDGRAQAAGSSVLRELHTADSVVNGSAQADVPKELEREESGAAESPALVTPDSEKSAKHGSGAFYSPELLEALTLRFEAPDSRNRWDRPLFTLVGLEEPLPLAGIRSALFENRAPPPHQSTQSQPLASGSFLHQLDQVTSQVLAGLMEAQKSAVPGDLLTLPGTTEHLRFTRPLTMAELSRLRRQFISYTKMHPNNENLPQLANMFLQYLSQSLH [KTI12] | -1.22 | -1.26 | -0.00671 | 0.526 |
| MDLDVVNMFVIAGGTLAIPILAFVASFLLWPSALIRIYYWYWRRTLGMQVRYVHHEDYQFCYSFRGRPGHKPSILMLHGFSAHKDMWLSVVKFLPKNLHLVCVDMPGHEGTTRSSLDDLSIDGQVKRIHQFVECLKLNKKPFHLVGTSMGGQVAGVYAAYYPSDVSSLCLVCPAGLQYSTDNQFVQRLKELQGSAAVEKIPLIPSTPEEMSEMLQLCSYVRFKVPQQILQGLVDVRIPHNNFYRKLFLEIVSEKSRYSLHQNMDKIKVPTQIIWGKQDQVLDVSGADMLAKSIANCQVELLENCGHSVVMERPRKTAKLIIDFLASVHNTDNNKKLD [ABHD6] | 0.51 | -0.118 | -0.0832 | -0.209 |
| MDLPVDEWKSYLLQKWASLPTSVQVTISTAETLRDIFLHSSSLLQPEDELFLKRLSKGYLVGKDSDAPLFYREEGNKKFQEKDYTGAAVLYSKGVSHSRPNTEDMSLCHANRSAALFHLGQYETCLKDINRAQTHGYPERLQPKIMLRKAECLVALGRLQEASQTISDLERNFTATPALADVLPQTLQRNLHRLKMKMQEKDSLTESFPAALAKTLEDAALREENEQLSNASSSIGLCVDPLKGRCLVATKDILPGELLVQEDAFVSVLNPGELPPPHHGLDSKWDTRVTNGDLYCHRCLKHTLATVPCDGCSYAKYCSQECLQQAWELYHRTECPLGGLLLTLGVFCHIALRLTLLVGFEDVRKIITKLCDKISNKDICLPESNNQVKTLNYGLGESEKNGNIVETPIPGCDINGKYENNYNAVFNLLPHTENHSPEHKFLCALCVSALCRQLEAASLQAIPTERIVNSSQLKAAVTPELCPDVTIWGVAMLRHMLQLQCNAQAMTTIQHTGPKGSIVTDSRQVRLATGIFPVISLLNHSCSPNTSVSFISTVATIRASQRIRKGQEILHCYGPHKSRMGVAERQQKLRSQYFFDCACPACQTEAHRMAAGPRWEAFCCNSCGAPMQGDDVLRCGSRSCAESAVSRDHLVSRLQDLQQQVRVAQKLLRDGELERAVQRLSGCQRDAESFLWAEHAVVGEIADGLARACAALGDWQKSATHLQRSLYVVEVRHGPSSVEMGHELFKLAQIFFNGFAVPEALSTIQKAEEVLSLHCGPWDDEIQELQKMKSCLLDLPPTPVGPAL [SMYD4] | 0.716 | 0.631 | 0.000145 | -0.119 |
